Test results taken from US20260116980A1.

How the values were obtained:
B7H3 on H358 tumor cells [1] = biological target: B7H3 on H358 tumor cells (UniProt Q5ZPR3); experiment: FACS on H358 cells, 1 h on ice, fluorescence-labelled anti-human Fc
B7H3 on H358 tumor cells [2] = biological target: B7H3 on H358 tumor cells (UniProt Q5ZPR3); experiment: flow cytometry on H358 cells, His-tag antibody iFluor 488 detection; MFImax of the four parameter fit
B7H3 on H358 tumor cells [3] = biological target: B7H3 on H358 tumor cells (UniProt Q5ZPR3); experiment: flow cytometry on H358 cells, His-tag antibody iFluor 488 detection, four parameter logistic model

Chain of B7H3 on H358 tumor cells (Q5ZPR3 29-534): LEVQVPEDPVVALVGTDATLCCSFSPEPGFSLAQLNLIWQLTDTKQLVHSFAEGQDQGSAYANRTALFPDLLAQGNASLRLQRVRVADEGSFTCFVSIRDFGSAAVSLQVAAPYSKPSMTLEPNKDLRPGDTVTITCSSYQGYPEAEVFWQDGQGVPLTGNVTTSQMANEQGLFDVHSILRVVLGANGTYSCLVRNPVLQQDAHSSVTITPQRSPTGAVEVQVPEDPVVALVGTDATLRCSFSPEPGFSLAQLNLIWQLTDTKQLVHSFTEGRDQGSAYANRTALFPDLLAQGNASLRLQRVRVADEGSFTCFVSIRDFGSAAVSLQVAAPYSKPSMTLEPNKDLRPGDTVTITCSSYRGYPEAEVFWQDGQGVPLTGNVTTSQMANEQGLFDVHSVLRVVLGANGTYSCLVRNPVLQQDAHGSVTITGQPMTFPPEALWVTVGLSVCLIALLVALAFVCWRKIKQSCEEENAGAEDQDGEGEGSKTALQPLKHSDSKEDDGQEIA

B1: BGA-6938 in wildtype IgG1/kappa format (antibody, V domains shown)
VH: QVQLQESGPGLVKPSGTLSLTCAVSGGSISTSNYWNWVRQSPGKGLEWIGEIYPTGNTNYSPSLKSRVTISIDKSKNQFSLKLNSVTAADTAVYYCARGYNWFDPWGQGTLVTVSS
VL: EIVLTQSPGTLSLSPGERATLSCRTSQSINAILLAWYQQKPGQAPRLLIYGASSRATGIPDRFSGSGSGTDFTLSISRLEPEDFAVYYCQQYGSSPRTFGQGTKVEIKR
EC50 (read off the curve) (B7H3 on H358 tumor cells [1]): 0.5 nM

B2: scFv of BGA-6938 VL-VH (scFv)
scFv: EIVLTQSPGTLSLSPGERATLSCRTSQSINAILLAWYQQKPGQAPRLLIYGASSRATGIPDRFSGSGSGTDFTLSISRLEPEDFAVYYCQQYGSSPRTFGQGTKVEIKGGGGSGGGGSGGGGSGGGGSQVQLQESGPGLVKPSGTLSLTCAVSGGSISTSNYWNWVRQSPGKGLEWIGEIYPTGNTNYSPSLKSRVTISIDKSKNQFSLKLNSVTAADTAVYYCARGYNWFDPWGQGTLVTVSSHHHHHH
MFI (B7H3 on H358 tumor cells [2]): 782000
EC50 (B7H3 on H358 tumor cells [3]): 2.05 nM
